Source: paper PMC3712289 (Nature structural & molecular biology, 2013)

T1: Rpn6 (S. cerevisiae, UniProt Q12377 1-434)
T1 sequence (looked up): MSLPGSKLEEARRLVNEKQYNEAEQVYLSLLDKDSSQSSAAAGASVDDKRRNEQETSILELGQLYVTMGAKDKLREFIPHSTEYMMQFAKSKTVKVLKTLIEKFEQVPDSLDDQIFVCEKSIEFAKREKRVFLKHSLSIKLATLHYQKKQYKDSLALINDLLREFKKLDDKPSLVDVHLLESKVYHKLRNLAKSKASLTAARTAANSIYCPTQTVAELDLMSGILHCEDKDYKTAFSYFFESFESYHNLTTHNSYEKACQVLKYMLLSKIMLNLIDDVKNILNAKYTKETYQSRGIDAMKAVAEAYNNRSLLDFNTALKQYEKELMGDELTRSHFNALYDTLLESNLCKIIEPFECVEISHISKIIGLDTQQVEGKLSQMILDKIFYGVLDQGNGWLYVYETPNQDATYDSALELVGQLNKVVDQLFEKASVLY

T2: Rpn5 (S. cerevisiae, UniProt Q12250 1-445)
T2 sequence (looked up): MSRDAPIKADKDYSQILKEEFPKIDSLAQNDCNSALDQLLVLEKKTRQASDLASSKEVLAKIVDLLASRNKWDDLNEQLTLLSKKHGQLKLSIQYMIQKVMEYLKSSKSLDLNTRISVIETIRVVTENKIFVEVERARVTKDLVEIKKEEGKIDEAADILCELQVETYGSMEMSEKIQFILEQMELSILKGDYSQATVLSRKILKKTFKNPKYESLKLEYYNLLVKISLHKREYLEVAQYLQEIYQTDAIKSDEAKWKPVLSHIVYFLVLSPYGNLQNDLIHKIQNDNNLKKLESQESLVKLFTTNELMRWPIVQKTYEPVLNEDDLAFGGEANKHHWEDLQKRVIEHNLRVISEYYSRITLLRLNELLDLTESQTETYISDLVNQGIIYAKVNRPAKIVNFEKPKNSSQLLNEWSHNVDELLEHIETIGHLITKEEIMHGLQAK

T3: Rpn7 (S. cerevisiae, UniProt Q06103 1-429)
T3 sequence (looked up): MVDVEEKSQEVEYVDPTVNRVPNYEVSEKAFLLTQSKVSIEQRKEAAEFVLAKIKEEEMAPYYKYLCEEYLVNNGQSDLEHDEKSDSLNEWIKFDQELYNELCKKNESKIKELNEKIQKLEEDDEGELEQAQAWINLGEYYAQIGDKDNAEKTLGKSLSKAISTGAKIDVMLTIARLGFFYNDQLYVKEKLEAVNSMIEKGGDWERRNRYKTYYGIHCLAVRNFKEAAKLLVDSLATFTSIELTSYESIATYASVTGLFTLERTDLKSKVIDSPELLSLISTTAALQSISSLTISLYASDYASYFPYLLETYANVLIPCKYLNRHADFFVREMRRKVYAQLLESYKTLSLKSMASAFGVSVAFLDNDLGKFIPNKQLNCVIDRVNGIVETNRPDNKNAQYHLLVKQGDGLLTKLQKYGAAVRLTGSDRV

T4: Rpt4 (S. cerevisiae, UniProt P53549 1-437)
T4 sequence (looked up): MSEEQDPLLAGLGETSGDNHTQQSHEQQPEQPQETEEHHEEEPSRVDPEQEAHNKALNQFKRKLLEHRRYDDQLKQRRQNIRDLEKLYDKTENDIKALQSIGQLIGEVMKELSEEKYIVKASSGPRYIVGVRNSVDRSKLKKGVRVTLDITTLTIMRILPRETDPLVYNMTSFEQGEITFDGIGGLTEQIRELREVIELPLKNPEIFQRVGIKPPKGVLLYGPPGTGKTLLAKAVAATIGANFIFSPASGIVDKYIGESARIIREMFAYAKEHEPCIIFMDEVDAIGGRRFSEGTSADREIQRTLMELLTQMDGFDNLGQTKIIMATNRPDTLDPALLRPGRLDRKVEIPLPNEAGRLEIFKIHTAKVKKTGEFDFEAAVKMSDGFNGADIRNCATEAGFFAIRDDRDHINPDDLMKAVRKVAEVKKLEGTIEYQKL

T5: Rpt5 (S. cerevisiae, UniProt P33297 1-434)
T5 sequence (looked up): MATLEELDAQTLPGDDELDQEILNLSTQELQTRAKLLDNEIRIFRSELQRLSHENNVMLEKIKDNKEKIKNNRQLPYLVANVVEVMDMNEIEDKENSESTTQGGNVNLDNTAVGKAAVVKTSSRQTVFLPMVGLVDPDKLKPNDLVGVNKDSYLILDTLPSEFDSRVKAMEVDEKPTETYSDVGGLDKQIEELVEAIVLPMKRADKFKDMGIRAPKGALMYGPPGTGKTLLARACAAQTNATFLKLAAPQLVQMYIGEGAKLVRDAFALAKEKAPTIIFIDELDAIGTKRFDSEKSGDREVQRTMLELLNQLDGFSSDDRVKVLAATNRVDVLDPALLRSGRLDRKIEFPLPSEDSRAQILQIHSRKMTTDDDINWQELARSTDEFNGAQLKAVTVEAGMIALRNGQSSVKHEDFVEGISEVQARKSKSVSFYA


What was measured:
Assay in all cases: cryo-EM structure
Rpn6 = molecular target: T1, Rpn6
Rpn5 = molecular target: T2, Rpn5
Rpn7 = molecular target: T3, Rpn7
Rpt4 = molecular target: T4, Rpt4
Rpt5 = molecular target: T5, Rpt5

| binding result (Rpn6) | binding result (Rpn5) | binding result (Rpn7) | binding result (Rpt4) | binding result (Rpt5) | Binder |
| --- | --- | --- | --- | --- | --- |
| binds | binds | binds | – | – | Rpt3 (natural protein, S. cerevisiae, UniProt P33298 1-428, looked up) MEELGIVTPVEKAVEEKPAVKSYASLLAQLNGTVNNNSALSNVNSDIYFKLKKLEKEYELLTLQEDYIKDEQRHLKRELKRAQEEVKRIQSVPLVIGQFLEPIDQNTGIVSSTTGMSYVVRILSTLDRELLKPSMSVALHRHSNALVDILPPDSDSSISVMGENEKPDVTYADVGGLDMQKQEIREAVELPLVQADLYEQIGIDPPRGVLLYGPPGTGKTMLVKAVANSTKAAFIRVNGSEFVHKYLGEGPRMVRDVFRLARENAPSIIFIDEVDSIATKRFDAQTGSDREVQRILIELLTQMDGFDQSTNVKVIMATNRADTLDPALLRPGRLDRKIEFPSLRDRRERRLIFGTIASKMSLAPEADLDSLIIRNDSLSGAVIAAIMQEAGLRAVRKNRYVILQSDLEEAYATQVKTDNTVDKFDFYK |
| – | – | – | binds | binds | Rpn10 (natural protein, S. cerevisiae, UniProt P38886 1-268, looked up) MVLEATVLVIDNSEYSRNGDFPRTRFEAQIDSVEFIFQAKRNSNPENTVGLISGAGANPRVLSTFTAEFGKILAGLHDTQIEGKLHMATALQIAQLTLKHRQNKVQHQRIVAFVCSPISDSRDELIRLAKTLKKNNVAVDIINFGEIEQNTELLDEFIAAVNNPQEETSHLLTVTPGPRLLYENIASSPIILEEGSSGMGAFGGSGGDSDANGTFMDFGVDPSMDPELAMALRLSMEEEQQRQERLRQQQQQQDQPEQSEQPEQHQDK |
| – | – | binds | – | – | Rpt6 (natural protein, S. cerevisiae, UniProt Q01939 1-405, looked up) MTAAVTSSNIVLETHESGIKPYFEQKIQETELKIRSKTENVRRLEAQRNALNDKVRFIKDELRLLQEPGSYVGEVIKIVSDKKVLVKVQPEGKYIVDVAKDINVKDLKASQRVCLRSDSYMLHKVLENKADPLVSLMMVEKVPDSTYDMVGGLTKQIKEIKEVIELPVKHPELFESLGIAQPKGVILYGPPGTGKTLLARAVAHHTDCKFIRVSGAELVQKYIGEGSRMVRELFVMAREHAPSIIFMDEIDSIGSTRVEGSGGGDSEVQRTMLELLNQLDGFETSKNIKIIMATNRLDILDPALLRPGRIDRKIEFPPPSVAARAEILRIHSRKMNLTRGINLRKVAEKMNGCSGADVKGVCTEAGMYALRERRIHVTQEDFELAVGKVMNKNQETAISVAKLFK |
